# Test: soluble on expression in E. coli; label from the status in PepcDB or PDB records
row,Sequence,soluble on expression in E. coli
1,GPGSMQLDDWDTYRETLLYARELAVLLPSSWSELSSEQSATKSSSSLSHSSSLPSLAFVKRVEAPLLTQWMTAAAAAPVTCHCSSVGDSVEDMDYATAVVAARWTRMLGMWIVLRVELLCNTSGGVLTLAEEYEVGRYRQYFVPLAWPMLDRSIRERLAARLCALADKRRVSQPMGGTSCANDMAASSFCGTLLGKDEEDEQACDEVCTRAMEATQRVAREQLRISWDALHPSSIPATVGAKLKRLSAQQSRRHESETGSLPRPVVVHTNCLGGLLHALTSFRLRPQRQHADHGSAPLLTLTQNALLHIGYDLLTKVRSSVIERCYYLIPALLDYESCLLFCEAMLKESAALQAHEKELTRTQSILRLTLQSLLQSALGMYRHVIEALLVDYKKSACKSSASSTPRLVKVSAHLLPANPLVAQEAAQKQHASDAVVPSKPPTHPGAADGCSASAVMRLSEPAFSILVEVLEPTCDLLQRYPADWNVLWTRSLTGPDGRDQGATSGSHIAREGGLLSPSSRRQRLVSQQRQRSIAMDVRREVVSFLDAEVSNCFAAAAAGSGAASKKAQQQAAADAYLTATYLSAYGPHWL,not soluble
2,MCMVKVWVEKLLDEPELYILRLDDSEIKHFEAAWSIPEGITYNAYLMKVGDAVVLFDTWKGEYTEKFLESLSTLVDPKEITHIIVHHTEPDHSGALPKLLELNEYRAKLIGTTFAKNLLQGFYGDKVVENFHTIKDGEEVKIGNRTFRFITVPWLHWPDTMITYDVEDKLIFSCDAGGGYGIPEAIDDSDEDVVKKYLPYVTKYIVTVIGHYHKYIVQNIKKLKELGIIENANMILPGHGLIWRKSPTRIFEHYERVGAGIPTKDKVLVIYDSMYGFVEKRMSVVIEELKRYGKKPVVYRFTDKENPAISDILGEVPDSEALVIGVSTYEADIHPRMRCALYEILDKANYEKPVLIVGAFGWGGVAGKKVETLISRSKFELVDVVETKGRMTSEDEERLREAVRKLIQWQL,soluble
3,MPSIRLADLAQQLDAELHGDGDIVITGVASMQSAQTGHITFMVNPKYREHLGLCQASAVVMTQDDLPFAKSAALVVKNPYLTYARMAQILDTTPQPAQNIAPSAVIDATAKLGNNVSIGANAVIESGVELGDNVIIGAGCFVGKNSKIGAGSRLWANVTIYHEIQIGQNCLIQSGTVVGADGFGYANDRGNWVKIPQIGRVIIGDRVEIGACTTIDRGALDDTIIGNGVIIDNQCQIAHNVVIGDNTAVAGGVIMAGSLKIGRYCMIGGASVINGHMEICDKVTVTGMGMVMRPITEPGVYSSGIPLQPNKVWRKTAALVMNIDDMSKRLKSLERKVNQQD,soluble
4,MTLVIGLTGGIASGKSTVANMLIEKGITVIDADIIAKQAVEKGMPAYRQIIDEFGEDILLSNGDIDRKKLGALVFTNEQKRLALNAIVHPAVRQEMLNRRDEAVANREAFVVLDIPLLFESKLESLVDKIIVVSVTKELQLERLMKRNQLTEEEAVSRIRSQMPLEEKTARADQVIDNSGTLEETKRQLDEIMNSWALEHHHHHH,soluble
5,MGHHHHHHSHMKPNVGQGSTSVQTAMESELGESSATINKRLCKSTIELSENSLLPASSMLTGTQSLLQPHLERVAIDALQLCCLLLPPPNRRKLQLLMRMISRMSQNVDMPKLHDAMGTRSLMIHTFSRCVLCCAEEVDLDELLAGRLVSFLMDHHQEILQVPSYLQTAVEKHLDYLKKGHIENPGDGLFAPLPTYPYCKQISAQEFDEQKVSTSQAAIAELLENIIKNRSLPLKEKRKKLKQFQKEYPLIYQKRFPTTESEAALFGDKPTIKQPMLILRKPKFRSLR,not soluble
6,MKVAICDDNPTLTEKINTMLFNYNPNIFETYTYYNPLKLVNQLDQENFDFFILDIEMSEMSGIDLAKKIRERDILSPIVFLTSYKEYMEEVFQVQTFDYLLKPPTEDRLHQVLEKLRQQLEKKRNYFVFSSNKVTYKIPTKDIIYFEKDKRQVLIHTVGEIYKPYMSTNQINEQLDTNFVQVHSSFIINCAYIKELGKNFLLMDSKEKCIEIPISRRFKAAAHKSIVMSMRGKI,not soluble
7,AIWRSRSFDEAIEMFRESLYSAKNEVIVVTPSEFFETIREDLIKTLERGVTVSLYIDKIPDLSEFKGKGNFFVRQFYKLNHLIGMTDGKEVVTIQNATFDSIGPPSFKSTYPEIIFSQYSLIIEIFKESTLEKEIIGNPKDIRFFAMFHAVDFVKNHLKNRNIYAEITGKNLESGRLETLTGRVVGYTLSLREAVNNIHLETENGVVKVGGMFAVIEDYESTEIKFIMGGSRS,soluble
8,MEKHLLISKGCKGWGGPLTITPGQGKKIAYITGGIRPPVVDRLSELTGWPSIDVFKNGEPPAEEIGLMVIDCGGTLRCGLYPKRGIPTINLHPTGKSGPLAEFIHEGIYVSGVTPACIEMVWPQGEGGKLGIVADDLTGATTVGVLLARSGLKTAAFFDTESFARNEVEYPAMVVSSDSRPLPKAEAQHKVSAAVKQLQARGAHYFTKRIDTTLRGGIGFEIDAMLEQLPQETVAVVVPAMPQSRRILVGGYSVIDSVALSRTDVARDVRTPVTESWVPGLLAAQTHHQVGHIALTSVMKGEGQIQQDLQEQQQRGVRVIVVDAITVDDVDAIAGAVVALNWNVLTVDPGPFTERLAVRRGLMREARSSAPASLTADGQRGSILIVAGSATPVTKKQLQYLIANDARVCHIPVDAELLVDRKNAAEIEVNRVVQHARQCVPAQHNALFVFESALTGRLLNLQEEEQRFGLAHGEAAQNINHGLGSIVREVLNCASGEIKGLYMTGGDTMVNVLKELGATGIEMIDYVIPQTDMVRIIGGDYAGLICVGKGGLTGPEDIISIIVDRIYQEAQ,not soluble
9,MPQNYPWLNTEQPLSIKQLNGRVVILDFWTYCCINCLHVLPDLKYLEQKYKDSLTVIGVHSAKFDNEQETENIRQAILRYDIEHPVLVDKDFRVWQEYAVRAWPTLMVIDPKGYVIGYVSGEGNRDKLDQLITQVIQEHQGAINFQQLSLTLEKQRQPLITPLAFPGKVLATPSGLFVADSGHHRIVVSDFNGEILHLIGNGKSGLTDGNFQEAQFSAPQGMAFDMENQILYLADTENHALRRVDINQQTVETIAGTGEQSRNIQPHGGVGLETALNSPWDLVNIENSLYIAMAGVHQIWQMDLASGVIKTYAGTGVEACLDASLTESAFAQPSGITNNEQELYIADSEISSIRGVGLVEPQEVRTVCGSGGLFGFGDVDGQGEDVRLQHCLGVEYFQNYLWVADTYNHKIKSVSPHTGNCQTVLGDGLAGLQNGQGKNTRFFEPSGLSAIDSYLYISDTNNHVIRRVDLRTLEVTTMQFNGLCAPDVCIPNNFLEHHHHHH,soluble
10,MSAPLRVLVTGAAGQIGYSIVIRIADGTVFGKEQPVELVLLDVPQCSNILEGVVFELQDCALPTLFSVVAVTDEKSAFTGIDYAFLVGAMPRREGMERKDLLAANVKIFKSQGKALAEYAKPTTKVIVVGNPANTNAFIAAKYAAGKIPAKNFSAMTRLDHNRALAQLALKTGTTIGNVKNVIIWGNHSGTQFPDVTHATVNKNGTETDAYAAVGDNAFLQGPFIATVQKRGGVIIEKRKLSSAMSAAKAACDHIHDWHFGTKAGQFVSMAVPSDGSYGIPQGLIFSFPVTIEGGEWKIVQGLSFDDFAKGKIAATTKELEEERDDALKACDDANI,not soluble
11,DGGTMENLSRRLKVTGDLFDIMSGQT,soluble
12,ILVKNLPQDSNCQEVHDLLKDYDLKYCYVDRNKRTAFVTLLNGEQAQNAIQMFHQYSFRGKDLIVQLQPTDALLC,soluble
13,METQKQTRRRGEKLENTILTAAWDQLNKVGYKDLTITEIASLAGTNKTTIYRRWPNKSLLVVSAFSKFVPRPKMHIPNSGNLRDDLVKLFEQLVNQLEFLTSGKFEGLLLDRLRDTSIDKVFGRVDENNALQKFIVIILQRAEKRGELKINQLSQRVLELPFLLLLNEVISTRGIVPKESLTEIVDKILLPVFLRSN,not soluble
14,MSLNVDLHCHSTASDGALSPSVLVARAHEHGVQALALTDHDTLEGLPEARQACVDLGMRWVSGVELSCTWGGATIHVLGYDFPLDAPPLLAAIQALHHGRWLRAEEIDRRLAAKGMPGTLEGARAVQHELGDSGNAPARPHFAEYLVRAGHVKDRGEAFRKWLGAGKLGDVKQHWPTLDETVATLRQSNAWVSLAHPMHYDLTRSKRRRLIADYIQAGGQALEVVNGMMPAEQVGTMSILAREFGLLASAGSDFHGPGTWGEIGAYRPLPEDLPPLWRRFSHEEGHHHHHH,soluble
15,SPRGLELLIAQTILQGFDAQYGRFLEVTSGAQQRFEQADWHAVQQAMKNRIHLYDHHVGLVVEQLRCITNGQSTDAEFLLRVKEHYTRLLPDYPRFEIAESFFNSVYCRLFDHRSLTPERLFIFSSQPERRFRTIPRPLAKDFHPDHGWESLLMRVISDLPLRLHWQNKSRDIHYIIRHLTETLGPENLSKSHLQVANELFYRNKAAWLVGKLITPSGTLPFLLPIHQTDDGELFIDTCLTTTAEASIVFGFARSYFMVYAPLPAALVEWLREILPGKTTAELYMAIGCQKHAKTESYREYLVYLQGCNEQFIEAPGIRGMVMLVFTLPGFDRVFKVIKDKFAPQKEMSAAHVRACYQLVKEHDRVGRMADTQEFENFVLEKRHISPALMELLLQEAAEKITDLGEQIVIRHLYIERRMVPLNIWLEQVEGQQLRDAIEEYGNAIRQLAAANIFPGDMLFKNFGVTRHGRVVFYDYDEICYMTEVNFRDIPPPRYPEDELASEPWYSVSPGDVFPEEFRHWLCADPRIGPLFEEMHADLFRADYWRALQNRIREGHVEDVYAYRRRQRFSVRYGEMLF,soluble
16,MKGFYHHPSRTISLRNNLSERQLRSTLAHELGHAMRGDVPTSGVFAEHIERRADEFAARLLISPIEYRLAESLHDGHIGAIAYELGVTVRLVEVWRDMHDRITA,not soluble
17,MGHHHHHHSHMDDPLLVELQAEDYWYEAYNMRTGARGVFPAYYAIEVTKEPEHMAALAKNSDWVDQFRVKFLGSVQVPYHKGNDVLCAAMQKIATTRRLTVHFNPPSSCVLEISVRGVKIGVKADDSQEAKGNKCSHFFQLKNISFCGYHPKNNKYFGFITKHPADHRFACHVFVSEDSTKALAESVGRAFQQFYKQFVEYTCPT,soluble
18,ASMTTPCITILSGHFPKETIYARKTKELVEEYCSIHGYNFYYEESEPLETEEHALHFRRSWIIQQAAEKFPSTEWFLWLDSDVYVNPKNKNKPITSFIDLSDPNILYHTFHEAPWGSYPINTGVKFVHKDALEIEKIVWSLRNEAPWNTFPYEQKTVYEYVFPRIPGRYIVHDPYTLNCIVKAYPEHVKDALFVHMCGTSRAERDEHMEMVAT,soluble
19,MDMNFFKHDAFSATTMMKAIENYEFQPGLISSLNLFEEVETSTTVVGIERRDNTLSLIQTSERGAPLVEGDRDGRNLRFFKTTRIAKSDTVKSEEIQNRREFGTEDQLETAMKYIARKQKKLISEIELTWENMQLGAVQGVVLDADGSVIVDWYKEWEIAPPKPIDFKLNNETTNVADHVDQVIMKMIEASKGAFSDRSRIIGLCGNEFFSKLKNHKTIRETYLNTALAQTLNSAGGVATPSAIGSGSFGSFDFAGVTFINYRSIHNYNVSAKAGTKRAIGIKPDECQFLPANAPGVFQKTFAPGESLDFANTVGKPLYTMLIVDNDRNAWVKPEVYSYPLYICTRPEMLFKAVSGGK,not soluble
20,MGSDKIHHHHHHMATTTIYEDLSAAYDLENMQALMATKDLLGAMLRIHFILEAFLDIWCNKITNCEDFFDLKRFTSFDTKLEISKKLGLPSELAVVFKLFNKIRNKFAHRPNYVICSNDLDNIHQAINQINTHDNHSKFTMIVFNEREIRWDTPDIPIIDSLLLNYFTLSQKVNDVFANEFSKRNISFTIQGQQA,not soluble
